He/Con_2aH and He/Con_2b data for seven molecules are collected here from patent US20180155451A1 (published 2018).

In experiment [1] the target is T1, FcγRIIa H (human, UniProt P12318 34-217).
T1 construct: extracellular domain; Soluble extracellular domain with C-terminal His tag, expressed in FreeStyle293 cells; also called FcgRIIa H; 2aH; not shown: C-terminal His tag
T1 sequence (looked up): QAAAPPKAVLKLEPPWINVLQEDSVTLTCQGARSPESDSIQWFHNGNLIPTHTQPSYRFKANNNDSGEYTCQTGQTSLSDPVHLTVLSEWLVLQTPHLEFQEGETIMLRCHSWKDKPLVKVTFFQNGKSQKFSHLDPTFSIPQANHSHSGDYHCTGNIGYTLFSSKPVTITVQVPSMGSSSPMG
Put plainly: SPR (Biacore), antibody captured, FcγR as analyte; relative to HeCon Ab. How it is done: (§1) The heterodimerized antibodies He Abs in which one of the H chains was introduced with an alteration were assayed for their binding activities to each activating FcγR and inhibitory FcγR according to the method described in Example 4. […] The activating FcγRs in FIGS. 26, 27, 28, and 29 are FcγRIa, FcγRIIa (R), FcγRIIa (H), and FcγRIIIa, respectively.
(§2) Analysis of interaction between objective antibody and the FcγR was carried out using Biacore T100 (GE Healthcare). HBS-EP+ (GE Healthcare) was used as the running buffer, and the measurement temperature was set to 25° C. Chips produced by immobilizing the antigen peptide by the amine coupling method to a Series S Sencor Chip CM5 (GE Healthcare), or alternatively, chips produced by allowing preliminarily biotinylated antigen peptides to interact with and immobilize onto a Series S Sensor Chip SA (certified) (GE Healthcare) were used. Antibodies of interest were captured onto an antigen peptide-immobilized chip, and allowed to interact to each FcγR diluted with running buffer. To regenerate and repeatedly use the chip, the antibodies captured on the chip were washed off by reacting 10 mM glycine-HCl, pH 1.5.

For experiment [2], the target named is T2, FcγRIIb (human, UniProt P31994 43-217).
T2 construct: extracellular domain; Soluble extracellular domain with C-terminal His tag, expressed in FreeStyle293 cells; also called FcgRIIb; 2b; not shown: C-terminal His tag
T2 sequence (looked up): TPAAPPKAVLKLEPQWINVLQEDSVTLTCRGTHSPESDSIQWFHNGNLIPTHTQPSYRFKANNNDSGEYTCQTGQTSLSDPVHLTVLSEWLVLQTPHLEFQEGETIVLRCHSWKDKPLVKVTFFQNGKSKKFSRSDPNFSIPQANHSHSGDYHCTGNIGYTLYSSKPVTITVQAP
The description is as above. The procedure:
as §1, §2

B1: GpH7-A5/GpH7-B3 variant L235_20W/GpL16-k0 (antibody, human IgG1, kappa)
heavy 1: not shown
heavy 2: not shown
light: DIVMTQSPLSLPVTPGEPASISCQASESLVHSNRNTYLHWYLQKPGQSPQLLIYKVSNRFSGVPDRFSGSGSGTDFTLKISRVEAEDVGVYYCSQNTHVPPTFGQGTKVEIERTVAAPSVFIFPPSDEQLKSGTASVVCLLNNFYPREAKVQWKVDNALQSGNSQESVTEQDSKDSTYSLSSTLTLSKADYEKHKVYACEVTHQGLSSPVTKSFNRGEC
notes: Heterodimerized anti-glypican-3 IgG1; alteration in the GpH7-B3 chain only; also called He Ab
In the case of B1, the He/Con_2aH in experiment [1] is 118 % of GpH7-A5/GpH7-B3/GpL16-k0 (=100). Further, the He/Con_2b in experiment [2] is 147 % of GpH7-A5/GpH7-B3/GpL16-k0 (=100).

B2: GpH7-A5/GpH7-B3 variant S267_03V/GpL16-k0 (antibody, human IgG1, kappa)
heavy 1: not shown
heavy 2: not shown
light: DIVMTQSPLSLPVTPGEPASISCQASESLVHSNRNTYLHWYLQKPGQSPQLLIYKVSNRFSGVPDRFSGSGSGTDFTLKISRVEAEDVGVYYCSQNTHVPPTFGQGTKVEIERTVAAPSVFIFPPSDEQLKSGTASVVCLLNNFYPREAKVQWKVDNALQSGNSQESVTEQDSKDSTYSLSSTLTLSKADYEKHKVYACEVTHQGLSSPVTKSFNRGEC
notes: as for B1
Take B2: the He/Con_2aH in experiment [1] is 50.8 % of GpH7-A5/GpH7-B3/GpL16-k0 (=100). In experiment [2], the He/Con_2b is 192 % of GpH7-A5/GpH7-B3/GpL16-k0 (=100).

B3: GpH7-A5/GpH7-B3 variant P238_18N/GpL16-k0 (antibody, human IgG1, kappa)
heavy 1: not shown
heavy 2: not shown
light: DIVMTQSPLSLPVTPGEPASISCQASESLVHSNRNTYLHWYLQKPGQSPQLLIYKVSNRFSGVPDRFSGSGSGTDFTLKISRVEAEDVGVYYCSQNTHVPPTFGQGTKVEIERTVAAPSVFIFPPSDEQLKSGTASVVCLLNNFYPREAKVQWKVDNALQSGNSQESVTEQDSKDSTYSLSSTLTLSKADYEKHKVYACEVTHQGLSSPVTKSFNRGEC
notes: as for B1
Take B3: the He/Con_2aH in experiment [1] is 53.5 % of GpH7-A5/GpH7-B3/GpL16-k0 (=100). In addition, the He/Con_2b in experiment [2] was 73.2 % of GpH7-A5/GpH7-B3/GpL16-k0 (=100).

B4: GpH7-A5/GpH7-B3 variant S239_07I/GpL16-k0 (antibody, human IgG1, kappa)
heavy 1: not shown
heavy 2: not shown
light: DIVMTQSPLSLPVTPGEPASISCQASESLVHSNRNTYLHWYLQKPGQSPQLLIYKVSNRFSGVPDRFSGSGSGTDFTLKISRVEAEDVGVYYCSQNTHVPPTFGQGTKVEIERTVAAPSVFIFPPSDEQLKSGTASVVCLLNNFYPREAKVQWKVDNALQSGNSQESVTEQDSKDSTYSLSSTLTLSKADYEKHKVYACEVTHQGLSSPVTKSFNRGEC
notes: as for B1
Consider B4, for which the He/Con_2aH in experiment [1] was 91.5 % of GpH7-A5/GpH7-B3/GpL16-k0 (=100). For the same molecule, the He/Con_2b in experiment [2] is 107 % of GpH7-A5/GpH7-B3/GpL16-k0 (=100).

B5: GpH7-A5/GpH7-B3 variant S239_01G/GpL16-k0 (antibody, human IgG1, kappa)
heavy 1: not shown
heavy 2: not shown
light: DIVMTQSPLSLPVTPGEPASISCQASESLVHSNRNTYLHWYLQKPGQSPQLLIYKVSNRFSGVPDRFSGSGSGTDFTLKISRVEAEDVGVYYCSQNTHVPPTFGQGTKVEIERTVAAPSVFIFPPSDEQLKSGTASVVCLLNNFYPREAKVQWKVDNALQSGNSQESVTEQDSKDSTYSLSSTLTLSKADYEKHKVYACEVTHQGLSSPVTKSFNRGEC
notes: as for B1
For the molecule B5, the He/Con_2aH in experiment [1] was 97 % of GpH7-A5/GpH7-B3/GpL16-k0 (=100). In experiment [2], the He/Con_2b is 144 % of GpH7-A5/GpH7-B3/GpL16-k0 (=100).

B6: GpH7-A5/GpH7-B3 variant P238_09D/GpL16-k0 (antibody, human IgG1, kappa)
heavy 1: not shown
heavy 2: not shown
light: DIVMTQSPLSLPVTPGEPASISCQASESLVHSNRNTYLHWYLQKPGQSPQLLIYKVSNRFSGVPDRFSGSGSGTDFTLKISRVEAEDVGVYYCSQNTHVPPTFGQGTKVEIERTVAAPSVFIFPPSDEQLKSGTASVVCLLNNFYPREAKVQWKVDNALQSGNSQESVTEQDSKDSTYSLSSTLTLSKADYEKHKVYACEVTHQGLSSPVTKSFNRGEC
notes: as for B1
With B6, the He/Con_2aH in experiment [1] is 87.5 % of GpH7-A5/GpH7-B3/GpL16-k0 (=100). Further, in experiment [2], the He/Con_2b is 221 % of GpH7-A5/GpH7-B3/GpL16-k0 (=100).

B7: GpH7-A5/GpH7-B3 variant S239_18N/GpL16-k0 (antibody, human IgG1, kappa)
heavy 1: not shown
heavy 2: not shown
light: DIVMTQSPLSLPVTPGEPASISCQASESLVHSNRNTYLHWYLQKPGQSPQLLIYKVSNRFSGVPDRFSGSGSGTDFTLKISRVEAEDVGVYYCSQNTHVPPTFGQGTKVEIERTVAAPSVFIFPPSDEQLKSGTASVVCLLNNFYPREAKVQWKVDNALQSGNSQESVTEQDSKDSTYSLSSTLTLSKADYEKHKVYACEVTHQGLSSPVTKSFNRGEC
notes: as for B1
Take B7: the He/Con_2aH in experiment [1] is 94.2 % of GpH7-A5/GpH7-B3/GpL16-k0 (=100). Moreover, the He/Con_2b in experiment [2] was 119 % of GpH7-A5/GpH7-B3/GpL16-k0 (=100).
